Values of other authors, collected in paper PMC11528372.

Key:
Conditions in all cases: cited from earlier work
[1] = target: Asp85 (UniProt position 98, WARYADWLFTT)
[2] = target: Asp74 (UniProt position 74, WGRYIDWVVTT)
[3] = target: Asp121 (UniProt position 121, AYRYVDWLLTV)
[4] = target: Asp97 (UniProt position 97, VFRYIDWLLTV)

In the case of “Bacteriorhodopsin (BR) (Halobacterium salinarum)”, the pKa [1] is listed as about 2.6.
In the case of “Cyanorhodopsin N2098R (Calothrix sp. NIES-2098 rhodopsin) (Calothrix sp. NIES-2098)”, the pKa [2] is given as under 2.0.
In the case of “Gloeobacter rhodopsin (GR) (Gloeobacter violaceus PCC 7421)”, the pKa [3] is listed as about 5.9.
For “Green-absorbing proteorhodopsin (GPR) (uncultured marine gamma proteobacterium EBAC31A08)”, the pKa [4] is given as about 7.9.
